Values quoted from earlier work, collected in publication PMC5520056, “Cryo-EM structures of the ATP-bound Vps4^E233Q hexamer and its complex with Vta1 at near-atomic resolution” (Nature Communications, 2017).

Biological target: Vta1 VSL (Saccharomyces cerevisiae) (UniProt Q06263)
Sequence (Q06263 280-330): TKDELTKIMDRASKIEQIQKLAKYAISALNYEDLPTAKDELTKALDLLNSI

Chain of Vps4 β-domain (P52917 351-397): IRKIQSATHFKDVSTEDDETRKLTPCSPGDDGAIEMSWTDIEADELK

- Kd: 85 µM
Substance: Vps4 β-domain (from UniProt P52917)
